A protein production outcome set (Wang et al. 2014)

Test: label from the status in PepcDB records
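Note: failed if final PepcDB status was selected cloned or expressed and not failed if soluble or beyond.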

Sequence | protein production
MNKPYFIAFLLSLALWTVIPSVFAGDVVLKVFEGKPRINSPHITGNYPSTPFIFYIPTSGQRPMQWSAEKLPEGLELDSKTGIISGVMTSKGDYTVTLKAENALGVSVKQLVIRIGDELLLTPPMGWNSWNTFGQHLTEELVLQTADAMITNGMRDLGYSYINIDDFWQLPERGADGHLQIDKTKFPRGIKYVADYLHERGFKLGIYSDAAEKTCGGVCGSYGYEETDAKDFASWGVDLLKYDYCNAPVDRVEAMERYAKMGRALRATNRSIVYSVCEWGQREPWKWAKQVGGHLWRVSGDIGDIWYRDGNRVGGLHGILNILEINAPLSEYAGPSGWNDPDMLVVGIDGKSMSIGYESEGCTQEQYKSHFSLWCMMASPLLSGNDVRNMNDSTLKILLDPDLIAINQDVLGRQAERSIRSDHYDIWVKPLADGCKAVACFNRASSPQTVILNENTIADLSFEQIYCLDSHLTKSGSDSKELIVKLAPYQCKVYILGKTDLEHHHHHH | failed
DAVELFKKANAMLDEDEDERVDEAALRQLTEMGFPENRATKALQLNHMSVPQAMEWLIEHAEDPTIDTPL | not failed
MISHFGAPLIRYDPALQGHAVPQLDMKTFTRRQHRPRPLILAVGLGLGIALTAPLAAAQNAPSSQPWRDTALTADQRADRLLAQMTEDEKFQMLRSYLGLGTDKIPKPAGALGSAGYVPGIARLGIPAQQLADAGVGVTNPGGIRKGDYATAMPSVLSTASSWNRQLAYAGGKTMGRESWQQGFNVLLAGSVNLQRDPRNGRNFEYAGEDPLLAGTMVGESIRGVQSEHVLSTMKHFALNDMETRRNFHSAQIGEQAMHESDLLAFEIALKIGDPASVMCSYNKINGVYGCEHDYLLNQVLKQEWKYPGYVMSDWGGVHSGSKAALAGLDQESAGEVFDVAVFFDAPLRMAVSAGVVPRARFDDMVKRILRSLFAHGAFDYPTQRQPIDGKAGLLAAQHVAEAGSVLLRNEQAMLPVSQDVRRIAVIGGYADKGVMSGGGSSRVDVTINGGNAVPGITPTTWPGPVIIHPSSPLQALRAALPNAQIDYVDGKDRAAAARAAKAADVAIVFATQWATESVDLPDMRLPDNQDALIEAVAKANPKTTVVLETNGPVRMPWAERVPAVLQAWYPGIGGGEAIANLLTGTVNPSGHLPVTWPVDESQLPRPSIPGLGFKPAKPGEDTIDYAIEGANVGYKWFAAHKLTPRYPFGHGLSYTQFRMDGLRVEANGSQLTASFEVENIGQREGAAVPQLYVTLPDGHATPLRLIGWQKLTLKPGEKRSVQVVAEPKTLADFDAQARRWTIAAGTYRVQLARSASEPVQSAAVTLQAAQLP | failed
MDAAVTDDFQQILPIEQLRSTHASNDYVERPPAPCKQALSSPSLIVQTHKSDWSLATMPTSLPRSLSQCHQLQPLPQHLSQSSIASSMSHSTTASDQRLLASITPSPSGQSIIRTQPGAGVHPKADGALKGEAEQSAGHPSEHLFICEECGRCKCVPCTAARPLPSCWLCNQRCLCSAESLLDYGTCLCCVKGLFYHCSTDDEDNCADEPCSCGPSSCFVRWAAMSLISLFLPCLCCYLPTRGCLHLCQQGYDSLRRPGCRCKRHTNTVCRKISSGSAPFPKAQEKSV | failed
MKERIVGQSGELFCFGQMPVWKVENLPEVLLSGYSSEEGEWVCLNVLQGDVEVRAPDGSAEVWSADGGDCVFAPQQVFSVKPKTDDAEIRLSLYCAAADYFHKKYGMSATHSAVAAARDTVPAGRALDMGCGQGRNALFLGLKGFEVTAVDHNPAALANVAELAEAEGLNVRTLEYDLNAAALQGEFDYIVATVVLMFLMPQRVPDVIADMQAHTAAGGYNLIVSAMDTADFPCPMPFPFKFKEGELKDYYRDWELVEYKEELGSMHAKDENGNPIRFKFVTMLAKKPELEHHHHHH | failed
DQDTLVQRAEHIPAGKRTPMCAHCNQVIRGPFLVALGKSWHPEEFNCAHCKNTMAYIGFVEEKGALYCELCYEKFFA | not failed
MSLTHVIWDMGETLNTVPNTRYDHHPLDTYPEVVLRKNAKETLEKVKQLGFKQAILSNTATSDTEVIKRVLTNFGIIDYFDFIYASNSELQPGKMEKPDKTIFDFTLNALQIDKTEAVMVGNTFESDIIGANRAGIHAIWLQNPEVCLQDERLPLVAPPFVIPVWDLADVPEALLLLKKISEGHHHHHH | not failed
MRVSCVYATASRWGGPPVASEVRGDAAISTTPDAAPGLAARRRRILFVAEAVTLAHVVRPFALAQSLDPSRYEVHFACDPRYNQLLGPLPFRHHAIHTIPSERFFGNLTQGRFYAMRTLRKYVEADLRVLDEIAPDLVVGDLRISLSVSARLAGIPYIAIANAYWSPYAQRRFPLPDVIWTRLFGVRLVKLLYRLERPLLFALQCMPLNWVRRRHGLSSLGWNLCRIFTDGDHTLYADVPELMPTYDLPANHEYLGPVLWSPAGKPPTWWDSLPTDRPIVYATLGTSGGRNLLQLVLNALAELPVTVIAATAGRSDLKTVPANAFVADYLPGEAAAARSAVVVCNGGSLTTQQALVAGVPVIGVAGNLDQHLNMEAVERAGAGVLLRTERLKSQRVAGAVMQVISRSEYRQAAARLADAFGRDRVGFPQHVENALRLMPENRPRTWLAS | failed
MNIRPAATLVLTRDTDNGIEVLLLQRTWEAVFLPGYYVFPGGAVNAQEPEGRAHVVGVEDADISQTMSLDEGGADYMLAAVRECFEEAGILLAQDASGQLIGADHGVHSERMALFQEEISLAQLCAKHGLTVPLDRLAYLSHWVTPPGPPRRFDTRFFVAVAPEGQVASHDGTETIDHVWIAPAQALEEHRAGARLLGLPTIRTLRVLSEFGTTGEMMRYAHANPPEAFPDQPWPAVRKGKPVMLEPNAPAYDEAVKLDPEGEGSTRAEIVPGEPVEVAAGVIRLTAPNPGMMTGPGTNTYILGHERFTVLDPGPANEAHIERILELTGGVVDQVVVTHTHMDHSPAVAQLKARTGCRVFGWPAPEGAGQDQGFTPDDQPGHEDLIVTEAGILKVLHTPGHASNHLCYLLLDQELLFSGDHIMQGSTVVINPPDGDMKAYIDSMYDLLAEPVRFIAPAHGFLMGQPAAVMDYLITHRLSREHKVWRALEALAPVSLKDLTARAYDDVPAAIHGLAARSALAHLLKLEAEHRAFADDGLWQVVAPD | failed
LETSWIKPGQASWEWWNDAAPYGPDVNFVSGYNLETYKYYIDFASKYGIRYIIMDEGWAKSTRDPYTPNAKVDVHELIRYAEKKNVGIVLWLTWLTVENNMDLFKTFSEWGVKGVKIDFMDRSDQWMMNFYERVAAEAAKYKLFVDFHGSVSPKGLEYKYPNVLSYEGVRGMEQMGGATPDNSIFMPFMRNAVGAMD | not failed
MSHAHKKHKENAPKSLNFYVITISTSRYEKLLKKEPIVDESGDIIKQLLIENGHKIIGYSLVPDDKIKILKAFTDALSIDEVDVIISTGGTGYSPTDITVETIRKLFDREIEGFSDVFRLVSFNDPEVKAAAYLTKASAGIIGKKIVYLLPGSPDAVKLALKELILPEVGHLVYLVRS | not failed
SDLVITQELARAESQQDAASLKKAYELIKSANLGKSEFDPSESFSPDLFVLCAEQALKMRQPEVSEDCIQMYFKVKAPITQFLGRAHLCRAQMCAPKSAENLEEFENCVTEYMKAINFAKGEPRYYFLVYNASVLYWQMVRPFLKPGYRHHLIPSLSQIINVLSQTEEEDKEWRAELMLELLECYLQAGRKEEAARFCSTAAPFIKSHVPQKYRQIFSVMVNQRIRNRDVRSNFLKSHCSENCVEIT | not failed
MNSQPRHFAPLARLLHWLMALLIIAMLFIGAGMVASVSARHEWLIHLHKPLGIAILLLVLVRLWVRFYTRQPPLPADLPGWQVLAAKASHVLLYALMLSLPLLGWGMISAAGDPVMLGSSLQLPAILPANAQLFAVLRKAHGYLAYLLFFTVLLHLAAALFHGWVRRDGVLQSMLRGRG | not failed
MSDLVKIRDVSLSTPYVSVIGKITGIHKKEYESDGTTKSVYQGYIEDDTARIRISSFGKQLQDSDVVRIDNARVAQFNGYLSLSVGDSSRIESVNVNIPLEHHHHHH | not failed
MHLSAYLLLVASLLFALFFAGTAAIQIWQGRTTALPWMEKGHLMLTAFMSVASAVLLHALANFDFSLVYVASYTDRALPLFYRLTAFWAGQAGSMLFWGWSVALFGVFFLFSPVYRRVSEPTRMWFWLLFLAMMGFFLLVLTCWSNPFTVVDPAPADGNGLNPLLQNPGMIFHPPLLFLGYGGFAIPGCLALAQSLSGMRLSEGAWADHARPFTLVAWLFLTAGIVLGGWWAYMELGWGGYWAWDPVENASLIPWLIASAYLHTAVIEARRNKLHRVNTFLMALTTISAFFATYLVRSGVVESLHAFGDGGVGTPLLIFIIVFTAVALGGSILWKHPDAKPLSGVESREGFLVMVAWVLLALGAIILVATMWPVFSKFWVDKPVGLEPAFYNRVCLPLFAVLVVMLAICPWLGWKGGLRNKVGAVTALGLFVGAAGGIWAAGYTIPTAVLGAAGAIAALGGIVMLLATEPHLRRSPQSLAAYGVHIGLALTALGVAFSGPYKTEHEVIMQQGDTVQVAGYDVTFKALYEGEGPGYIFIEAELDVKKNGSDVGMAQPQRRIYSKFGKQAFAEASTIPGLGNEFYAVLLGVDREGKATLHLNVTPLINWVWIGSIIMCLFPFIGMRRRKTAEA | failed
ASISEVAAITGLTQDTLRWYEREGMIPTIARGSDRRRRYSERDVRLIELLVKLRTTGMPTSDMQRFAVLLAGGAETHERRLALLLAHRERILAQQARLDDALAALDTKVDHYR | failed
VKRFWENVGKPNDTTDGRGTTSLAMTPISQTPGLLAEAMVDLGAIEHNVRVLREHAGHAQLMAVVKADGYGHGATRVAQTALGAGAAELGVATVDEALALRADGITAPVLAWLHPPGIDFGPALLADVQVAVSSLRQLDELLHAVRRTGRTATVTVKVDTGLNRNGVGPAQFPAMLTALRQAMAEDAVRLRGLMSHMVYADKPDDSINDVQAQRFTAFLAQAREQGVRFEVAHLSNSSATMARPDLTFDLVRPGIAVYGLSPVPALGDMGLVPAMTVKCAVALVKSIRAGEGVSYGHTWIAPRDTNLALLPIGYADGVFRSLGGRLEVLINGRRCPGVGRICMDQFMVDLGPGPLDVAEGDEAILFGPGIRGEPTAQDWADLVGTIHYEVVTSPRGRITRTYREAENR | not failed
TDINSLRTRLRSGEHAFADTLAFIADGYDYQPQPFRNGDVDNAAGQNEGSCKTLGLALLEGLSDEEALLAFGEHYRSVQATPEGSDHGNIRALIKHGLAGVTFEGEPLKRK | not failed
MDAPKAGYAFEYLIETLNDSSHKKFFDVSKLGTKYDVLPYSIRVLLEAAVRNCDGFLMKKEDVMNILDWKTKQSNVEVPFFPARVLLQDFTGIPAMVDFAAMREAVKTLGGDPEKVHPACPTDLTVDHSLQIDFSKCAIQNAPNPGGGDLQKAGKLSPLKVQPKKLPCRGQTTCRGSCDSGELGRNSGTFSSQIENTPILCPFHLQPVPEPETVLKNQEVEFGRNRERLQFFKWSSRVFKNVAVIPPGTGMAHQINLEYLSRVVFEEKDLLFPDSVVGTDSHITMVNGLGILGWGVGGIETEAVMLGLPVSLTLPEVVGCELTGSSNPFVTSIDVVLGITKHLRQVGVAGKFVEFFGSGVSQLSIVDRTTIANMCPEYGAILSFFPVDNVTLKHLEHTGFSKAKLESMETYLKAVKLFRNDQNSSGEPEYSQVIQINLNSIVPSVSGPKRPQDRVAVTDMKSDFQACLNEKVGFKGFQIAAEKQKDIVSIHYEGSEYKLSHGSVVIAAVISCTNNCNPSVMLAAGLLAKKAVEAGLRVKPYIRTSLSPGSGMVTHYLSSSGVLPYLSKLGFEIVGYGCSTCVGNTAPLSDAVLNAVKQGDLVTCGILSGNKNFEGRLCDCVRANYLASPPLVVAYAIAGTVNIDFQTEPLGTDPTGKNIYLHDIWPSREEVHRVEEEHVILSMFKALKDKIEMGNKRWNSLEAPDSVLFPWDLKSTYIRCPSFFDKLTKEPIALQAIENAHVLLYLGDSVTTDHISPAGSIARNSAAAKYLTNRGLTPREFNSYGARRGNDAVMTRGTFANIKLFNKFIGKPAPKTIHFPSGQTLDVFEAAELYQKEGIPLIILAGKKYGSGNSRDWAAKGPYLLGVKAVLAESYEKIHKDHLIGIGIAPLQFLPGENADSLGLSGRETFSLTFPEELSPGITLNIQTSTGKVFSVIASFEDDVEITLYKHGGLLNFVARKFS | not failed
